Source: US20230407373A1 (priority 2020, published 2023)
Like-named read-outs stand apart in the source and are kept apart here.

How the values were obtained:
Format in all cases: binding
[1] = tested on: SARS-CoV-2 gRNA and sgRNAs; conditions: for background (unweighted spectral count in control): no-probe control pull-down, used as background for Probe II; for target (unweighted spectral count in RNP capture): Probe II capture, LC-MS/MS LFQ
gRNA of HCoV-OC43 = conditions: for target (spectral count) / background (spectral count): type g_36_m, 36 hpi, Probe I; for target (spectral count): HCoV-OC43-infected HCT-8 cells; for background (spectral count): uninfected-probe control; for target (spectral count, OC43 Probe I RNP capture) / background (spectral count, no-probe control): type n_48_v: 48 hours post-infection; for target (spectral count, OC43 Probe I RNP capture): infected cells, unweighted spectral count; for background (spectral count, no-probe control): no-probe control on infected cells
HCoV-OC43 gRNA and sgRNA = conditions: for target (unweighted spectral count, OC43 Probe II capture) / target (spectral count) / background (spectral count): 36 hpi; for target (unweighted spectral count, OC43 Probe II capture): type n_36_v, FDR<10%; for target (unweighted spectral count, OC43 Probe II capture) / target (unweighted spectral count): tested against no-probe control; for target (unweighted spectral count): OC43 Probe II, infected cells; for target (unweighted spectral count, OC43 Probe II) / background (unweighted spectral count, no-probe control): type n_48_v, 48 hpi; for target (unweighted spectral count, OC43 Probe II): OC43 Probe II capture on infected cells; for background (unweighted spectral count, no-probe control): no-probe control on infected cells; for target (spectral count) / background (spectral count): type s_36_m, Probe II; for target (spectral count): HCoV-OC43-infected HCT-8 cells; for background (spectral count): uninfected-probe control
SARS-CoV-2 gRNA = conditions: […]; LC-MS/MS; Probe I sample (first 199 lines of Table 2)

Molecule	background (unweighted spectral count in control) [1]	target (spectral count) (gRNA of HCoV-OC43)	background (spectral count) (gRNA of HCoV-OC43)	target (unweighted spectral count, OC43 Probe II capture) (HCoV-OC43 gRNA and sgRNA)	target (unweighted spectral count) (HCoV-OC43 gRNA and sgRNA; 12 hpi (type n_12_v))	target (unweighted spectral count) (HCoV-OC43 gRNA and sgRNA; 24 hpi (type n_24_v))	target (unweighted spectral count, OC43 Probe II) (HCoV-OC43 gRNA and sgRNA)	background (unweighted spectral count, no-probe control) (HCoV-OC43 gRNA and sgRNA)	target (spectral count) (HCoV-OC43 gRNA and sgRNA)	background (spectral count) (HCoV-OC43 gRNA and sgRNA)	target (unweighted spectral count of the protein in the RNP capture) (SARS-CoV-2 gRNA)	target (unweighted spectral count in RNP capture) [1]	target (spectral count, OC43 Probe I RNP capture) (gRNA of HCoV-OC43)	background (spectral count, no-probe control) (gRNA of HCoV-OC43)
HNRNPL: host protein, UniProt P14866 (protein, UniProt P14866 1-589, looked up) Heterogeneous nuclear …: MSRRLLPRAEKRRRRLEQRQQPDEQRRRSGAMVKMAAAGGGGGGGRYYGGGSEGGRAPKRLKTDNAGDQHGGGGGGGGGAGAAGGGGGGENYDDPHKTPASPVVHIRGLIDGVVEADLVEALQEFGPISYVVVMPKKRQALVEFEDVLGACNAVNYAADNQIYIAGHPAFVNYSTSQKISRPGDSDDSRSVNSVLLFTILNPIYSITTDVLYTICNPCGPVQRIVIFRKNGVQAMVEFDSVQSAQRAKASLNGADIYSGCCTLKIEYAKPTRLNVFKNDQDTWDYTNPNLSGQGDPGSNPNKRQRQPPLLGDHPAEYGGPHGGYHSHYHDEGYGPPPPHYEGRRMGPPVGGHRRGPSRYGPQYGHPPPPPPPPEYGPHADSPVLMVYGLDQSKMNCDRVFNVFCLYGNVEKVKFMKSKPGAAMVEMADGYAVDRAITHLNNNFMFGQKLNVCVSKQPAIMPGQSYGLEDGSCSYKDFSESRNNRFSTPEQAAKNRIQHPSNVLHFFNAPLEVTEENFFEICDELGVKRPSSVKVFSGKSERSSSGLLEWESKSDALETLGFLNHYQMKNPNGPYPYTLKLCFSTAQHAS	1	59	6	42	12	25	46	2	42	5	43	–	–	–
SFPQ: host protein, UniProt P23246 (protein, UniProt P23246 1-707, looked up) Splicing factor, proline- and …: MSRDRFRSRGGGGGGFHRRGGGGGRGGLHDFRSPPPGMGLNQNRGPMGPGPGQSGPKPPIPPPPPHQQQQQPPPQQPPPQQPPPHQPPPHPQPHQQQQPPPPPQDSSKPVVAQGPGPAPGVGSAPPASSSAPPATPPTSGAPPGSGPGPTPTPPPAVTSAPPGAPPPTPPSSGVPTTPPQAGGPPPPPAAVPGPGPGPKQGPGPGGPKGGKMPGGPKPGGGPGLSTPGGHPKPPHRGGGEPRGGRQHHPPYHQQHHQGPPPGGPGGRSEEKISDSEGFKANLSLLRRPGEKTYTQRCRLFVGNLPADITEDEFKRLFAKYGEPGEVFINKGKGFGFIKLESRALAEIAKAELDDTPMRGRQLRVRFATHAAALSVRNLSPYVSNELLEEAFSQFGPIERAVVIVDDRGRSTGKGIVEFASKPAARKAFERCSEGVFLLTTTPRPVIVEPLEQLDDEDGLPEKLAQKNPMYQKERETPPRFAQHGTFEYEYSQRWKSLDEMEKQQREQVEKNMKDAKDKLESEMEDAYHEHQANLLRQDLMRRQEELRRMEELHNQEMQKRKEMQLRQEEERRRREEEMMIRQREMEEQMRRQREESYSRMGYMDPRERDMRMGGGGAMNMGDPYGSGGQKFPPLGGGGGIGYEANPGVPPATMSGSMMGSDMRTERFGQGGAGPVGGQGPRGMGPGTPAGYGRGREEYEGPNKKPRF	1	33	7	36	–	16	33	7	36	3	50	38	39	7
PUM1: host protein, UniProt Q14671 (protein, UniProt Q14671 2-1186, looked up) Pumilio homolog 1: SVACVLKRKAVLWQDSFSPHLKHHPQEPANPNMPVVLTSGTGSQAQPQPAANQALAAGTHSSPVPGSIGVAGRSQDDAMVDYFFQRQHGEQLGGGGSGGGGYNNSKHRWPTGDNIHAEHQVRSMDELNHDFQALALEGRAMGEQLLPGKKFWETDESSKDGPKGIFLGDQWRDSAWGTSDHSVSQPIMVQRRPGQSFHVNSEVNSVLSPRSESGGLGVSMVEYVLSSSPGDSCLRKGGFGPRDADSDENDKGEKKNKGTFDGDKLGDLKEEGDVMDKTNGLPVQNGIDADVKDFSRTPGNCQNSANEVDLLGPNQNGSEGLAQLTSTNGAKPVEDFSNMESQSVPLDPMEHVGMEPLQFDYSGTQVPVDSAAATVGLFDYNSQQQLFQRPNALAVQQLTAAQQQQYALAAAHQPHIGLAPAAFVPNPYIISAAPPGTDPYTAGLAAAATLGPAVVPHQYYGVTPWGVYPASLFQQQAAAAAAATNSANQQTTPQAQQGQQQVLRGGASQRPLTPNQNQQGQQTDPLVAAAAVNSALAFGQGLAAGMPGYPVLAPAAYYDQTGALVVNAGARNGLGAPVRLVAPAPVIISSSAAQAAVAAAAASANGAAGGLAGTTNGPFRPLGTQQPQPQPQQQPNNNLASSSFYGNNSLNSNSQSSSLFSQGSAQPANTSLGFGSSSSLGATLGSALGGFGTAVANSNTGSGSRRDSLTGSSDLYKRTSSSLTPIGHSFYNGLSFSSSPGPVGMPLPSQGPGHSQTPPPSLSSHGSSSSLNLGGLTNGSGRYISAAPGAEAKYRSASSASSLFSPSSTLFSSSRLRYGMSDVMPSGRSRLLEDFRNNRYPNLQLREIAGHIMEFSQDQHGSRFIQLKLERATPAERQLVFNEILQAAYQLMVDVFGNYVIQKFFEFGSLEQKLALAERIRGHVLSLALQMYGCRVIQKALEFIPSDQQNEMVRELDGHVLKCVKDQNGNHVVQKCIECVQPQSLQFIIDAFKGQVFALSTHPYGCRVIQRILEHCLPDQTLPILEELHQHTEQLVQDQYGNYVIQHVLEHGRPEDKSKIVAEIRGNVLVLSQHKFASNVVEKCVTHASRTERAVLIDEVCTMNDGPHSALYTMMKDQYANYVVQKMIDVAEPGQRKIVMHKIRPHIATLRKYTYGKHILAKLEKYYMKNGVDLGPICGPPNGII	1	11	1	6	–	–	6	1	–	–	6	20	6	1
SERBP1 (protein, UniProt Q8NC51 2-408, looked up) SERPINE1 mRNA-binding protein …: PGHLQEGFGCVVTNRFDQLFDDESDPFEVLKAAENKKKEAGGGGVGGPGAKSAAQAAAQTNSNAAGKQLRKESQKDRKNPLPPSVGVVDKKEETQPPVALKKEGIRRVGRRPDQQLQGEGKIIDRRPERRPPRERRFEKPLEEKGEGGEFSVDRPIIDRPIRGRGGLGRGRGGRGRGMGRGDGFDSRGKREFDRHSGSDRSSFSHYSGLKHEDKRGGSGSHNWGTVKDELTESPKYIQKQISYNYSDLDQSNVTEETPEGEEHHPVADTENKENEVEEVKEEGPKEMTLDEWKAIQNKDRAKVEFNIRKPNEGADGQWKKGFVLHKSKSEEAHAEDSVMDHHFRKPANDITSQLEINFGDLGRPGRGGRGGRGGRGRGGRPNRGSRTDKSSASAPDVDDPEAFPALA	1	–	–	15	–	6	18	4	–	–	17	30	19	4
HNRNPA1 (protein, UniProt P09651 1-372, looked up) Heterogeneous nuclear …: MSKSESPKEPEQLRKLFIGGLSFETTDESLRSHFEQWGTLTDCVVMRDPNTKRSRGFGFVTYATVEEVDAAMNARPHKVDGRVVEPKRAVSREDSQRPGAHLTVKKIFVGGIKEDTEEHHLRDYFEQYGKIEVIEIMTDRGSGKKRGFAFVTFDDHDSVDKIVIQKYHTVNGHNCEVRKALSKQEMASASSSQRGRSGSGNFGGGRGGGFGGNDNFGRGGNFSGRGGFGGSRGGGGYGGSGDGYNGFGNDGGYGGGGPGYSGGSRGYGSGGQGYGNQGSGYGGSGSYDSYNNGGGGGFGGGSGSNFGGGGSYNDFGNYNNQSSNFGPMKGGNFGGRSSGPYGGGGQYFAKPRNQGGYGGSSSSSSYGSGRRF	–	–	–	39	24	31	53	7	–	–	97	74	82	7
